We go through 1 substance from article PMC9312469.

The target in assay [1] is PH-YFP (isolated PLCδ1 PH domain linked to a yellow fluorescent protein variant that lacks the A206K mutation) (UniProt P51178). Description: fluorescence fluctuation spectroscopy (photon counting histogram); PH-YFP bound to POPC:PI(4,5)P2 (95:5) GUVs, 100 μM Ca2+; two-brightness population model.
Assay [2] has the same target. Description: fluorescence fluctuation spectroscopy (photon counting histogram); PH-YFP bound to POPC:PI(4,5)P2 (95:5) GUVs, 50 μM Ca2+; two-brightness population model.
Assay [3] shares this target. Description: fluorescence fluctuation spectroscopy (photon counting histogram); PH-YFP bound to POPC:PI(4,5)P2 (95:5) GUVs, 5 mM EDTA (0 μM Ca2+); two-brightness population model.
For assay [4] the target is unchanged. Description: fluorescence fluctuation spectroscopy (photon counting histogram); PH-YFP bound to POPC:PI(4,5)P2 (95:5) GUVs, in the presence of Ca2+ (20, 50 and 100 μM taken together, on average); two-brightness population model.
Assay [5] shares this target. Description: fluorescence fluctuation spectroscopy (photon counting histogram); PH-YFP bound to POPC:PI(4,5)P2 (95:5) GUVs, 20 μM Ca2+; two-brightness population model.

Turning to “PH-YFP (isolated PLCδ1 PH domain linked to a yellow fluorescent protein variant that lacks the A206K mutation) (from UniProt P51178 21-130)”, in assay [1], the F1 (Monomeric Population), fraction weighed by brightness was 86.5% and the F2 (Oligomeric Population), fraction weighed by brightness stood at 13.5%. Also, in assay [2], the F1 (Monomeric Population), fraction weighed by brightness amounted to 82.5% and the F2 (Oligomeric Population), fraction weighed by brightness came out at 17.5%. In assay [3], this substance had an F1 (Monomeric Population), fraction weighed by brightness of 71.3%; an F2 (Oligomeric Population), fraction weighed by brightness of 28.7%; a brightness of the second population relative to the lower brightness (monomer) component of 2.3 fold; a stoichiometry N of 2. Besides, the fraction of particles in the second (oligomeric) population in assay [4] was less than 5%. For the same substance, in assay [5], the F1 (Monomeric Population), fraction weighed by brightness amounted to 99.3% and the F2 (Oligomeric Population), fraction weighed by brightness worked out at 0.7%.

A word on the stoichiometry N: it is the number of molecules, sites or subunits per partner or assembly.
